Assay results published in publication PMC6983858, “Biochemical and structural analyses reveal that the tumor suppressor neurofibromin (NF1) forms a high-affinity dimer” (The Journal of Biological Chemistry, 2019).

Tests used:
[1] = molecular target: the molecule itself; assay: AUC; sedimentation velocity of CDEF, 2.2 to 8.8 μM, 40,000 rpm, 20 °C, 300 mM NaCl, 20 mM HEPES-NaOH pH 7.3, 5 mM TCEP
[2] = molecular target: T1, neurofibromin EF fragment (1821–2818) (human, UniProt P21359-2 1821-2818); assay: SEC; equimolar mixtures of two purified NF1 fragments on an analytical SEC column, fractions analysed by SDS-PAGE; details: both partners purified
T1 construct: neurofibromin, human, NF1 isoform 2 (NM_000267.3); residues 1821-2818; numbers count on: the 2818-residue isoform; TEV cleavage (ENLYFQ/G) probably leaves a G at the N-terminus; also called EF domain; EF(1821–2818); source: Tni-FNL insect cells (baculovirus), purified; not shown: His6, N-terminal, cleaved; MBP, N-terminal, cleaved
T1 sequence (looked up): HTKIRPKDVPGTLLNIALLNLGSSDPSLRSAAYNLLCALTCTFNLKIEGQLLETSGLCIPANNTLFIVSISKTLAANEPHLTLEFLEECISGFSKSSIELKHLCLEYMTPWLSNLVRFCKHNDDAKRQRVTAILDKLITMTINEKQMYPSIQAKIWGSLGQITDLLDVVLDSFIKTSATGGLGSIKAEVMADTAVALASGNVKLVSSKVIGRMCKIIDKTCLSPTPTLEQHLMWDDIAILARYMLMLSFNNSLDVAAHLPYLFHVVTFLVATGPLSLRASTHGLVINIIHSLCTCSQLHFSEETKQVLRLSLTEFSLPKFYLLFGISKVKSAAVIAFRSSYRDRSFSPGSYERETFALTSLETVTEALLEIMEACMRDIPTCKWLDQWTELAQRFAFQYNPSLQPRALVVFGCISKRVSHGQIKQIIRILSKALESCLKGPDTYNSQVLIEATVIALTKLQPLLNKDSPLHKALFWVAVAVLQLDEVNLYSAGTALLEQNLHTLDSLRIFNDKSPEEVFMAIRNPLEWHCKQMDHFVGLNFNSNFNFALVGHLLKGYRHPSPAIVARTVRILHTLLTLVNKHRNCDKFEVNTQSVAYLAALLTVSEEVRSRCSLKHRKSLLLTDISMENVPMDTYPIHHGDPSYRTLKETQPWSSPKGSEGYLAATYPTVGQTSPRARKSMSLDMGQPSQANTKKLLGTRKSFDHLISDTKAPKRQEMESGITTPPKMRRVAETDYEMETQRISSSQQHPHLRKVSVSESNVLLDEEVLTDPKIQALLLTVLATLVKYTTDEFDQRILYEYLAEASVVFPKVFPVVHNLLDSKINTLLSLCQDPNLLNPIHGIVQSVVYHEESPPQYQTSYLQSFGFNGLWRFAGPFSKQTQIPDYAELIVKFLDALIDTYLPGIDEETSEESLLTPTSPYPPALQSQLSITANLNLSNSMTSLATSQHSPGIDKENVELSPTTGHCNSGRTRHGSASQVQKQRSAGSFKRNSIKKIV

[3] = molecular target: T2, neurofibromin ABC fragment (2–1540) (human, UniProt P21359-2 2-1540); assay: as above; details: both partners purified
T2 construct: neurofibromin, human, NF1 isoform 2 (NM_000267.3); numbers count on: the 2818-residue isoform; TEV cleavage (ENLYFQ/G) probably leaves a G at the N-terminus; also called NF1-ABC; source: Tni-FNL insect cells (baculovirus), purified; not shown: His6, N-terminal, cleaved; MBP, N-terminal, cleaved
T2 sequence (P21359 other isoform, or with tags, fused parts or gaps): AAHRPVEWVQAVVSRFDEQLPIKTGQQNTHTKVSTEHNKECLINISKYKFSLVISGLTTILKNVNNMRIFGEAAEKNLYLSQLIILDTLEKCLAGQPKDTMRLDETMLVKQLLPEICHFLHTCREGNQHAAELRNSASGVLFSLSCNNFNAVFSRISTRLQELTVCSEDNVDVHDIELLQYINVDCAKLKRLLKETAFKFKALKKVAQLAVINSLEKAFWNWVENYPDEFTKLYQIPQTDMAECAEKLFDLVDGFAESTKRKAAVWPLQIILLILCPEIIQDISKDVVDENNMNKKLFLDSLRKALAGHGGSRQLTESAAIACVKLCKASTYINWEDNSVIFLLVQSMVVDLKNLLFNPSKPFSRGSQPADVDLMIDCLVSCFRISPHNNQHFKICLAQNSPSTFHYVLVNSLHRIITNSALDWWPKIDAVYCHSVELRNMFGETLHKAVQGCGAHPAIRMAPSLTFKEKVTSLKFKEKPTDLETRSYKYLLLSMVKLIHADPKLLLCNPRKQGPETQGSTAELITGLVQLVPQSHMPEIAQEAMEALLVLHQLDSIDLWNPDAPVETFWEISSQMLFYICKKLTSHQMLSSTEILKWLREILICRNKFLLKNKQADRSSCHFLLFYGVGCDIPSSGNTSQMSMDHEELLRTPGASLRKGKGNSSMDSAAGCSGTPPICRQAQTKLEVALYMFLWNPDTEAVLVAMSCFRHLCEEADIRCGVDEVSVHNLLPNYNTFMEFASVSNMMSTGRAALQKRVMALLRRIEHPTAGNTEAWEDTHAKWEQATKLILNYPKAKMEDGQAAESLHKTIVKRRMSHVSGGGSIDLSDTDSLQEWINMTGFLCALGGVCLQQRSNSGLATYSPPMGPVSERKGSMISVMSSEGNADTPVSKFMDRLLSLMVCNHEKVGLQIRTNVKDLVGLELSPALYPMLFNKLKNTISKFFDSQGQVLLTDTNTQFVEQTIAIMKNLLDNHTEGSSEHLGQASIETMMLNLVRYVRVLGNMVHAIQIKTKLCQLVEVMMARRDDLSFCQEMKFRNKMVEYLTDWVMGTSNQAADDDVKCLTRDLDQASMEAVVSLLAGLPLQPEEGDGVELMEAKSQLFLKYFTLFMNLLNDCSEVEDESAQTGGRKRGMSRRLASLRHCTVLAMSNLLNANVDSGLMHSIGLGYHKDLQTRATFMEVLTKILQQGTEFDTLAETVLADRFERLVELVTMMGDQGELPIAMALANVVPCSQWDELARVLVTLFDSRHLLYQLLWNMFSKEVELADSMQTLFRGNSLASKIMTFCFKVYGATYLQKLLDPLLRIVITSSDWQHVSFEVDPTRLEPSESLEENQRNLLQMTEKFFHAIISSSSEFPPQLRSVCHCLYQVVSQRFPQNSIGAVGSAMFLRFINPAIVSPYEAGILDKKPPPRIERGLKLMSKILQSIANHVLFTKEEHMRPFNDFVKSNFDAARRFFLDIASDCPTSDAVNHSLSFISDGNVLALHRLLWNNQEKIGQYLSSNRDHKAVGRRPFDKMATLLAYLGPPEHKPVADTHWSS

B1: neurofibromin CDEF fragment (861–2818) (domain or fragment, human, UniProt P21359-2 861-2818, looked up)
chain: ATYSPPMGPVSERKGSMISVMSSEGNADTPVSKFMDRLLSLMVCNHEKVGLQIRTNVKDLVGLELSPALYPMLFNKLKNTISKFFDSQGQVLLTDTNTQFVEQTIAIMKNLLDNHTEGSSEHLGQASIETMMLNLVRYVRVLGNMVHAIQIKTKLCQLVEVMMARRDDLSFCQEMKFRNKMVEYLTDWVMGTSNQAADDDVKCLTRDLDQASMEAVVSLLAGLPLQPEEGDGVELMEAKSQLFLKYFTLFMNLLNDCSEVEDESAQTGGRKRGMSRRLASLRHCTVLAMSNLLNANVDSGLMHSIGLGYHKDLQTRATFMEVLTKILQQGTEFDTLAETVLADRFERLVELVTMMGDQGELPIAMALANVVPCSQWDELARVLVTLFDSRHLLYQLLWNMFSKEVELADSMQTLFRGNSLASKIMTFCFKVYGATYLQKLLDPLLRIVITSSDWQHVSFEVDPTRLEPSESLEENQRNLLQMTEKFFHAIISSSSEFPPQLRSVCHCLYQVVSQRFPQNSIGAVGSAMFLRFINPAIVSPYEAGILDKKPPPRIERGLKLMSKILQSIANHVLFTKEEHMRPFNDFVKSNFDAARRFFLDIASDCPTSDAVNHSLSFISDGNVLALHRLLWNNQEKIGQYLSSNRDHKAVGRRPFDKMATLLAYLGPPEHKPVADTHWSSLNLTSSKFEEFMTRHQVHEKEEFKALKTLSIFYQAGTSKAGNPIFYYVARRFKTGQINGDLLIYHVLLTLKPYYAKPYEIVVDLTHTGPSNRFKTDFLSKWFVVFPGFAYDNVSAVYIYNCNSWVREYTKYHERLLTGLKGSKRLVFIDCPGKLAEHIEHEQQKLPAATLALEEDLKVFHNALKLAHKDTKVSIKVGSTAVQVTSAERTKVLGQSVFLNDIYYASEIEEICLVDENQFTLTIANQGTPLTFMHQECEAIVQSIIHIRTRWELSQPDSIPQHTKIRPKDVPGTLLNIALLNLGSSDPSLRSAAYNLLCALTCTFNLKIEGQLLETSGLCIPANNTLFIVSISKTLAANEPHLTLEFLEECISGFSKSSIELKHLCLEYMTPWLSNLVRFCKHNDDAKRQRVTAILDKLITMTINEKQMYPSIQAKIWGSLGQITDLLDVVLDSFIKTSATGGLGSIKAEVMADTAVALASGNVKLVSSKVIGRMCKIIDKTCLSPTPTLEQHLMWDDIAILARYMLMLSFNNSLDVAAHLPYLFHVVTFLVATGPLSLRASTHGLVINIIHSLCTCSQLHFSEETKQVLRLSLTEFSLPKFYLLFGISKVKSAAVIAFRSSYRDRSFSPGSYERETFALTSLETVTEALLEIMEACMRDIPTCKWLDQWTELAQRFAFQYNPSLQPRALVVFGCISKRVSHGQIKQIIRILSKALESCLKGPDTYNSQVLIEATVIALTKLQPLLNKDSPLHKALFWVAVAVLQLDEVNLYSAGTALLEQNLHTLDSLRIFNDKSPEEVFMAIRNPLEWHCKQMDHFVGLNFNSNFNFALVGHLLKGYRHPSPAIVARTVRILHTLLTLVNKHRNCDKFEVNTQSVAYLAALLTVSEEVRSRCSLKHRKSLLLTDISMENVPMDTYPIHHGDPSYRTLKETQPWSSPKGSEGYLAATYPTVGQTSPRARKSMSLDMGQPSQANTKKLLGTRKSFDHLISDTKAPKRQEMESGITTPPKMRRVAETDYEMETQRISSSQQHPHLRKVSVSESNVLLDEEVLTDPKIQALLLTVLATLVKYTTDEFDQRILYEYLAEASVVFPKVFPVVHNLLDSKINTLLSLCQDPNLLNPIHGIVQSVVYHEESPPQYQTSYLQSFGFNGLWRFAGPFSKQTQIPDYAELIVKFLDALIDTYLPGIDEETSEESLLTPTSPYPPALQSQLSITANLNLSNSMTSLATSQHSPGIDKENVELSPTTGHCNSGRTRHGSASQVQKQRSAGSFKRNSIKKIV
notes: neurofibromin, human, NF1 isoform 2 (NM_000267.3); residues 861-2818; numbers count on: the 2818-residue isoform; TEV cleavage (ENLYFQ/G) probably leaves a G at the N-terminus; also called NF1-CDEF; NF1(861–2818); source: Tni-FNL insect cells (baculovirus), purified; not shown: His6, N-terminal, cleaved; MBP, N-terminal, cleaved
- stoichiometry N [1]: 2

B2: neurofibromin C* domain (1085–1530) (domain or fragment, human, UniProt P21359-2 1085-1530, looked up)
chain: LQPEEGDGVELMEAKSQLFLKYFTLFMNLLNDCSEVEDESAQTGGRKRGMSRRLASLRHCTVLAMSNLLNANVDSGLMHSIGLGYHKDLQTRATFMEVLTKILQQGTEFDTLAETVLADRFERLVELVTMMGDQGELPIAMALANVVPCSQWDELARVLVTLFDSRHLLYQLLWNMFSKEVELADSMQTLFRGNSLASKIMTFCFKVYGATYLQKLLDPLLRIVITSSDWQHVSFEVDPTRLEPSESLEENQRNLLQMTEKFFHAIISSSSEFPPQLRSVCHCLYQVVSQRFPQNSIGAVGSAMFLRFINPAIVSPYEAGILDKKPPPRIERGLKLMSKILQSIANHVLFTKEEHMRPFNDFVKSNFDAARRFFLDIASDCPTSDAVNHSLSFISDGNVLALHRLLWNNQEKIGQYLSSNRDHKAVGRRPFDKMATLLAYLGPPEH
notes: neurofibromin, human, NF1 isoform 2 (NM_000267.3); numbers count on: the 2818-residue isoform; TEV cleavage (ENLYFQ/G) probably leaves a G at the N-terminus; source: Tni-FNL insect cells (baculovirus), purified; not shown: His6, N-terminal, cleaved; MBP, N-terminal, cleaved
- binding result [2]: binds

B3: neurofibromin DEF fragment (1541–2818) (domain or fragment, human, UniProt P21359-2 1541-2818, looked up)
chain: LNLTSSKFEEFMTRHQVHEKEEFKALKTLSIFYQAGTSKAGNPIFYYVARRFKTGQINGDLLIYHVLLTLKPYYAKPYEIVVDLTHTGPSNRFKTDFLSKWFVVFPGFAYDNVSAVYIYNCNSWVREYTKYHERLLTGLKGSKRLVFIDCPGKLAEHIEHEQQKLPAATLALEEDLKVFHNALKLAHKDTKVSIKVGSTAVQVTSAERTKVLGQSVFLNDIYYASEIEEICLVDENQFTLTIANQGTPLTFMHQECEAIVQSIIHIRTRWELSQPDSIPQHTKIRPKDVPGTLLNIALLNLGSSDPSLRSAAYNLLCALTCTFNLKIEGQLLETSGLCIPANNTLFIVSISKTLAANEPHLTLEFLEECISGFSKSSIELKHLCLEYMTPWLSNLVRFCKHNDDAKRQRVTAILDKLITMTINEKQMYPSIQAKIWGSLGQITDLLDVVLDSFIKTSATGGLGSIKAEVMADTAVALASGNVKLVSSKVIGRMCKIIDKTCLSPTPTLEQHLMWDDIAILARYMLMLSFNNSLDVAAHLPYLFHVVTFLVATGPLSLRASTHGLVINIIHSLCTCSQLHFSEETKQVLRLSLTEFSLPKFYLLFGISKVKSAAVIAFRSSYRDRSFSPGSYERETFALTSLETVTEALLEIMEACMRDIPTCKWLDQWTELAQRFAFQYNPSLQPRALVVFGCISKRVSHGQIKQIIRILSKALESCLKGPDTYNSQVLIEATVIALTKLQPLLNKDSPLHKALFWVAVAVLQLDEVNLYSAGTALLEQNLHTLDSLRIFNDKSPEEVFMAIRNPLEWHCKQMDHFVGLNFNSNFNFALVGHLLKGYRHPSPAIVARTVRILHTLLTLVNKHRNCDKFEVNTQSVAYLAALLTVSEEVRSRCSLKHRKSLLLTDISMENVPMDTYPIHHGDPSYRTLKETQPWSSPKGSEGYLAATYPTVGQTSPRARKSMSLDMGQPSQANTKKLLGTRKSFDHLISDTKAPKRQEMESGITTPPKMRRVAETDYEMETQRISSSQQHPHLRKVSVSESNVLLDEEVLTDPKIQALLLTVLATLVKYTTDEFDQRILYEYLAEASVVFPKVFPVVHNLLDSKINTLLSLCQDPNLLNPIHGIVQSVVYHEESPPQYQTSYLQSFGFNGLWRFAGPFSKQTQIPDYAELIVKFLDALIDTYLPGIDEETSEESLLTPTSPYPPALQSQLSITANLNLSNSMTSLATSQHSPGIDKENVELSPTTGHCNSGRTRHGSASQVQKQRSAGSFKRNSIKKIV
notes: neurofibromin, human, NF1 isoform 2 (NM_000267.3); numbers count on: the 2818-residue isoform; TEV cleavage (ENLYFQ/G) probably leaves a G at the N-terminus; also called NF1-DEF; source: Tni-FNL insect cells (baculovirus), purified; not shown: His6, N-terminal, cleaved; MBP, N-terminal, cleaved
- binding result [3]: binds

B4: neurofibromin C*D domain (1085–1816) (domain or fragment, human, UniProt P21359-2 1085-1816, looked up)
chain: LQPEEGDGVELMEAKSQLFLKYFTLFMNLLNDCSEVEDESAQTGGRKRGMSRRLASLRHCTVLAMSNLLNANVDSGLMHSIGLGYHKDLQTRATFMEVLTKILQQGTEFDTLAETVLADRFERLVELVTMMGDQGELPIAMALANVVPCSQWDELARVLVTLFDSRHLLYQLLWNMFSKEVELADSMQTLFRGNSLASKIMTFCFKVYGATYLQKLLDPLLRIVITSSDWQHVSFEVDPTRLEPSESLEENQRNLLQMTEKFFHAIISSSSEFPPQLRSVCHCLYQVVSQRFPQNSIGAVGSAMFLRFINPAIVSPYEAGILDKKPPPRIERGLKLMSKILQSIANHVLFTKEEHMRPFNDFVKSNFDAARRFFLDIASDCPTSDAVNHSLSFISDGNVLALHRLLWNNQEKIGQYLSSNRDHKAVGRRPFDKMATLLAYLGPPEHKPVADTHWSSLNLTSSKFEEFMTRHQVHEKEEFKALKTLSIFYQAGTSKAGNPIFYYVARRFKTGQINGDLLIYHVLLTLKPYYAKPYEIVVDLTHTGPSNRFKTDFLSKWFVVFPGFAYDNVSAVYIYNCNSWVREYTKYHERLLTGLKGSKRLVFIDCPGKLAEHIEHEQQKLPAATLALEEDLKVFHNALKLAHKDTKVSIKVGSTAVQVTSAERTKVLGQSVFLNDIYYASEIEEICLVDENQFTLTIANQGTPLTFMHQECEAIVQSIIHIRTRWELSQPD
notes: neurofibromin, human, NF1 isoform 2 (NM_000267.3); numbers count on: the 2818-residue isoform; TEV cleavage (ENLYFQ/G) probably leaves a G at the N-terminus; also called CD domains; source: Tni-FNL insect cells (baculovirus), purified; not shown: His6, N-terminal, cleaved; MBP, N-terminal, cleaved
- binding result [2]: binds
